Results: the RNAGym collection of RNA variant scans (doi:10.1073/pnas.2313332121)
Variants at the floor of the assay were thinned out.

B1: TPR 5TU (parent)
chain: GGAUCUUCUCGAUCUAACAAAAAAGACAAAUCUGCCACAAAGCUUGAGAGCAUCUUCGGAUGCAGAGGCGGCAGCCUUCGGUGGCGCGAUAGCGCCAACGUUCUCAACUAUGACACGCAAAACGCGUGCUCCGUUGAAUGGAGUUUAUCAUG

Variants of: B1
Assay: polymerase ribozyme fitness, log enrichment relative to wild type (log ratio); higher = more active; in vitro selection for triplet polymerase activity
Procedure, shortened: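 A single round of triplicate in vitro selection, including frozen incubation at −7 °C, was applied to PCR-built, transcribed mutant libraries of each subunit of a heterodimeric triplet polymerase ribozyme. Illumina sequencing of input and output libraries retained genotypes with ≥10 input reads and ≥1 read per output. Fitness is the base-2 logarithm of genotype enrichment divided by wild-type enrichment, from inverse-variance-weighted replicate averages.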

Row | Variant | polymerase ribozyme fitness (log ratio)
1 | C18G C114G A122G | -3.64
2 | A17U A26C C76A G86A C96A C105G A115G | ≤ -4.2
3 | C18G A37C C93A A115G | -4.01
4 | A17U G81A G84A | -0.321
5 | A17U A19C C87G A89U | ≤ -4.2
6 | A17U A19U C93G U111G | ≤ -4.2
7 | A17G G50A U55G A89U C93A | ≤ -4.2
8 | A17G G59A G143C | -1.26
9 | C18G U56G C85U | -0.856
10 | C18G G92U U130G | -4.01
11 | C18A A28G A30C G46A G74C | ≤ -4.2
12 | A17U A20U G50C | ≤ -4.2
13 | A17U U31G G50C U78G U90G C96G | ≤ -4.2
14 | A17U A20C C57U A60U C93A G94U A122C G126U | ≤ -4.2
15 | A17U C129G | -2.62
16 | A17U A19G A22U C93A | -4.01
17 | A17G C35U U53A G94A | -1.28
18 | C18G C85A | -1.49
19 | C18G C85G | -2.28
20 | C18G C32U C43U A89C | ≤ -4.2
21 | A17U A73U C93U A120G | -1.86
22 | C18G C95U | 0.206
23 | A17U C95U | -0.895
24 | C18G C32G C35U G86U C105G A115C | -4

Row | Variant | polymerase ribozyme fitness (log ratio)
25 | A17U U146C | -0.884
26 | C18G U45A A121U | -2.73
27 | A17G C32A C51A U55A A60C G74A G81A U90G C95A | ≤ -4.2
28 | C18G A37G A66G G68C C93A G128A | ≤ -4.2
29 | A17U A19G C36U G42C G50A A73U A147C | ≤ -4.2
30 | C18G A39G A40U G67A U90C A97G C99U | ≤ -4.2
31 | C18G C38A C93U C105U A113C | -4.17
32 | C18G G42A U45A G58U A122C A142G | ≤ -4.2
33 | A17G U53A C75G A91G A113G G143A | ≤ -4.2
34 | A17U A60U | -0.153
35 | A17U U101A U139G A142U | -3.82
36 | A17U G94C C132U | -1.54
37 | C18G U78A G83A C118U | ≤ -4.2
38 | A17G G58C C72U G152A | -2.87
39 | C18G U56A A73U G83C | -3.86
40 | C18G U44A C96G G133A A137U | -4.04
41 | C18G G34U C57U C96U A147U | -2.53
42 | C18A A20C U82C A122C | -1.71
43 | A17U A52C A64C G133A A138C | ≤ -4.2
44 | C18G A30U C35A U61G G62U C93U U111G G124A | ≤ -4.2
45 | A17U A24U C36A G59A U77G G83A A98U C105U C116G | ≤ -4.2
46 | A17G U44A A91G | ≤ -4.2
47 | A17G C18G A40C C85G A106U G124U C125U | ≤ -4.2
48 | A17U G50A | -2.57

Row | Variant | polymerase ribozyme fitness (log ratio)
49 | C18A A29U G136A | ≤ -4.2
50 | C18A A22C A23U A37C C72U G88A C125U U146G | ≤ -4.2
51 | C18U A21C U55A | -0.649
52 | A17U C87U C96U U104C A107U G141U | ≤ -4.2
53 | A17U U53G C99A C125G G141U U146C | ≤ -4.2
54 | A17U C18U A20G C93U A115G | -4.19
55 | A17G C35U C36U C95U | ≤ -4.2
56 | A17G U56A G62C G152A | -3.06
57 | C18A U31G G84C A89U | -2.91
58 | A17G G58A C93U U101G U139A | ≤ -4.2
59 | A17G C35A A40C G67U C96A C129G | ≤ -4.2
60 | C18G A24U U33A G124A U135A | ≤ -4.2
61 | C18A C35G A39U G84U G126A A150C | ≤ -4.2
62 | C18G A19U A23C G67C G126A G143U U144C | ≤ -4.2
63 | A17G C27A | ≤ -4.2
64 | C18U A21C G141A | 0.0565
65 | A17U C32G C57A U139A | ≤ -4.2
66 | C18G C54U U78C | -2.12
67 | A17U C76U C96U | 0.123
68 | A17G C38A U45A C69A C85U A142C C149U U151G | ≤ -4.2
69 | A17U U53C G92A C129G | ≤ -4.2
70 | A17G G58A G59C C69U C95U U104A | -3.74
71 | C18G C32G A66U A89G C95G A107U | ≤ -4.2
72 | A17U C87U G94C | -3.01

Row | Variant | polymerase ribozyme fitness (log ratio)
73 | A17G U53A | -0.401
74 | A17U G25C | -4.13
75 | A17U A19G A30G C38G U45A G88U | ≤ -4.2
76 | A17U G84A C123G | -0.525
77 | C18G A23U A39G U55G A73U A89G A97U | ≤ -4.2
78 | C18G U45C C96U C116A U130C | ≤ -4.2
79 | C18A A26U G84A A138G | ≤ -4.2
80 | A17U C57G C69A | -2.58
81 | C18A A19U C76A C85U C99U U104G A110G G143C | ≤ -4.2
82 | A17U G59U C93U C114G | -3
83 | C18G C76G C85A U145A | ≤ -4.2
84 | A17G C36U C93G | -3.8
85 | C18A A19C G50U C75U A110U | ≤ -4.2
86 | A17U C54A U90G C96A C118G | ≤ -4.2
87 | C18U A19U A64G A89G A119U U146C | ≤ -4.2
88 | C18G A26C C54A G62A C76G C87A A97C A150U | ≤ -4.2
89 | A17G C75U C95U | 0.0451
90 | A17G G59A C85U G92C C103A A122U | ≤ -4.2
91 | C18G C79G | -3.9
92 | C18G C38G G81C C93G | ≤ -4.2
93 | C18A A21U A52G C54U G92A C103A | ≤ -4.2
94 | A17U C18G A41G A89C G126A C132U | -3.84
95 | A17U A26C G62A G86U C99U U134C A137U G140A A147U | ≤ -4.2
96 | A17U G71A C87G G140U | ≤ -4.2

Row | Variant | polymerase ribozyme fitness (log ratio)
97 | A17U A30C C38U U53G G58U C99U C132U | ≤ -4.2
98 | C18A U56A G58C G94A | -0.964
99 | A17G C35A G67C C96U C114U C116U | ≤ -4.2
100 | A17G C96A A97G U101C U148C | -3.67
101 | A17U A98G | -0.0344
102 | C18G U53A C57U G59C U61A C95G | -3.99
103 | A17U G84U | -1.75
104 | A17G G86U A97U | -2.08
105 | A17G G58C U61G G71U G86C U104G G143C | ≤ -4.2
106 | A17U A29U A37C C75U G80U G92A C125U A142C | ≤ -4.2
107 | C18G A19U G42C G50C U90G G92U | ≤ -4.2
108 | A17U C114U | -1.91
109 | A17G C93G C95U | ≤ -4.2
110 | A17G G70A C85G | ≤ -4.2
111 | A17U A20C C85U U102G C116G | -3.83
112 | A17U G92A | -2.84
113 | A17U A30U G42A C95A A138G | ≤ -4.2
114 | A17G G34A U56A G59A U78G | ≤ -4.2
115 | C18G U31C G59C G81A C116G A138G | -4.15
116 | A17U A28U C38U | ≤ -4.2
117 | A17U G42A G81C G86U G92C G143C | ≤ -4.2
118 | A17G G50C A137G U144G | ≤ -4.2
119 | A17U G59C G86C A113U | ≤ -4.2
120 | A17U G83A C96U C125U C129U | -1.96

Row | Variant | polymerase ribozyme fitness (log ratio)
121 | A17G U33G C79G G84A U134G | ≤ -4.2
122 | A17U U55A | -1.08
123 | C18G A26U C96A | -2.84
124 | C18G C57U | -0.371
125 | C18G A64C U82G A137G | ≤ -4.2
126 | A17U A29C A66C C95A C132G | ≤ -4.2
127 | A17G C57U C96U U127C C131A G133U U146C | ≤ -4.2
128 | A17G C18A G84C C93U | -3.84
129 | A17U A21G A22C C38U A66U U82C G100A C125U | ≤ -4.2
130 | A17U U56G C125G | -1.81
131 | A17G C95U G141A | 0.672
132 | A17U A110U | ≤ -4.2
133 | C18U A20U G59A G94A C116G A142G A150G | ≤ -4.2
134 | C18G A20C G34U U55G C118U C123U | -4.18
135 | C18G A24G C57U C93G G94C G117C | ≤ -4.2
136 | A17U G100A A120C A150U | ≤ -4.2
137 | A17G C36G C79A C95U A97U G117U G126U | -4.08
138 | A17U A41C G94C | -1.13
139 | A17U C35A C69G U78G G84A A91G C103A | ≤ -4.2
140 | A17U C57U G136A | 0.435
141 | A17U A49G C85U C116A | -0.0919
142 | A17G C72U A147C | -0.924
143 | A17G G70A C75G C96U C99G | -4.15
144 | A17U C36G G67U C87G C95G C99A C103A | ≤ -4.2

Row | Variant | polymerase ribozyme fitness (log ratio)
145 | A17U C85A C96G | -2.34
146 | A17G C43A C54U C93G | ≤ -4.2
147 | C18G G71C C76A G88A G94A A113G A119U C129U | ≤ -4.2
148 | A17U G42A A91C A122U G136C | ≤ -4.2
149 | A17G G83U A107U U135C | ≤ -4.2
150 | C18A A19G C57A C87U C129A U135G | ≤ -4.2
151 | A17U G100U U134A U145G | ≤ -4.2
152 | A17U U101G | 0.484
153 | A17G C57U A113C | -3.96
154 | C18G A37C C96G A106G | -1.07
155 | A17G C27A C35G C75A G86C A142G | ≤ -4.2
156 | C18G C72U G86U G88C A150G | ≤ -4.2
157 | A17U C93A G94U A121U A150G | ≤ -4.2
158 | A17G C57A A91G C95G A122U | -4.04
159 | A17U A24C A26G C57U G86A | ≤ -4.2
160 | C18A A30G C38U G48C G71A A89U C96U A97C | ≤ -4.2
161 | C18A U56A C85G C96A | -3.54
162 | A17U G124U | -0.693
163 | C18A U33A U56A G88A C114U U130A | ≤ -4.2
164 | A17U A29C C43G G86A U135C | -4.06
165 | C18G A24U C76A C95U G141A | -3.98
166 | A17U C35A A47U A66C A73U G86A A91C U109G | ≤ -4.2
167 | C18G C93U A98G A120C G141U | 0.17
